Data on four molecules can be found in patent US20050226863A1 (MIT, published 2005).

The target of assay [1] is T1, peptide consisting of the first 20 amino acids of htt, MATLEKLMKAFESLKSFQQQ-biotin (C-terminal biotin).
T1 construct: Synthesized to contain three glutamines; also called huntingtin peptide; huntingtin peptide antigen
T1 peptide: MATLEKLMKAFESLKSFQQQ
Kind of assay: titration of yeast surface displayed intrabody with biotinylated peptide, flow cytometry; Example 4 text's estimate from FIG. 24B. From the text:
A peptide consisting of the first 20 amino acids of htt was used as the antigen ([…]-biotin (SEQ ID NO:9), synthesized by the MIT biopolymers lab). The antigen was synthesized to contain three glutamines because the beginning of the polyglutamine region would be an ideal target for interfering with the misfolding of htt exon I. Affinity maturation of VL,C22V,C89A relied upon protocols previously described (Colby, D. W. et al., Methods Enzymol 388: 348-358, 2004). Briefly, the VL,C22V,C89A gene was used as the template for the creation of a library of point mutants through error-prone PCR using nucleotide analogues. The resulting PCR products were amplified and transformed into yeast along with digested pCTCON (a yeast surface display vector) to create a library through homologous recombination (Raymond, C. K. et al., Biotechniques 26: 134-138, 140-141, 1999). […] These mutants were then used as the template in the next round of library generation. The entire process, from library generation to isolation of improved mutants, was repeated three times to yield VL12.3. FACS sorting was performed using a Cytomation Moflo FACS machine by the staff of the MIT Flow cytometry core facility. All constructs and clones were sequenced at the MIT biopolymers lab.
Intrabody lacking disulflde bond engineered for high affinity by directed evolution. […]

Assay [2] addresses T1, peptide consisting of the first 20 …. Kind of assay: antigen binding curves of yeast surface displayed VL mutants, flow cytometry; figure legend's estimate from FIG. 24B. The protocol:
(§1) Both intrabodies are equally capable of partially blocking aggregation when overexpressed at high levels. *** p<0.001. FIG. 24D is a schematic homology model that includes mutations obtained during engineering; model contains residues present before mutagenesis. Mutations observed after mutagenesis and sorting were F371, Y51D, K67R, and A75T.
(§2) Yeast surface display. […] Yeast surface display labeling experiments to measure expression and binding were conducted as previously described (Boder, E. T. et al., Methods Enzymol 328: 430-444, 2000). A peptide consisting of the first 20 amino acids of htt was used as the antigen ([…]-biotin (SEQ ID NO:9), synthesized by the MIT biopolymers lab). The antigen was synthesized to contain three glutamines because the beginning of the polyglutamine region would be an ideal target for interfering with the misfolding of htt exon I. Affinity maturation of VL,C22V,C89A relied upon protocols previously described (Colby, D. W. et al., Methods Enzymol 388: 348-358, 2004). Briefly, the VL,C22V,C89A gene was used as the template for the creation of a library of point mutants through error-prone PCR using nucleotide analogues. […]

Another assay addresses httex1Q97-GFP, P42858. Kind of assay: cell-based or functional assay.
For assay [3], the target named is T1, peptide consisting of the first 20 …. Kind of assay: yeast surface display, flow cytometry. The protocol: as §1, §2
For orientation: A flow cytometer gives signals particle by particle.

Assay [4] shares this target. As to the kind of experiment: titration of yeast surface displayed intrabody with biotinylated peptide, flow cytometry. The protocol:
as §1, §2

The target is the same in assay [5]. As to the kind of experiment: yeast surface display, flow cytometry with huntingtin peptide (method not restated in the sentence). The procedure:
as §1, §2

Assay [6] shares this target. As to the kind of experiment: yeast surface display, flow cytometry with huntingtin peptide. The protocol: as §1, §2
Assay [7] has the same target. As to the kind of experiment: yeast surface display titration. The protocol:
as §1, §2

B1: VL12.3 (other)
VL: MGSQPVLTQSPSVSAAPRQRVTISVSGSNSNIGSNTVNWIQQLPGRAPELLMYDDDLLAPGVSDRFSGSRSGTSASLTISGLQSEDEADYYAATWDDSLNGWVFGGGTKVTVLSGHHHHHH
notes: It carries N-terminal MGS and C-terminal GHHHHHH, which is the his6 intrabody form; also called engineered intrabody VL12.3; Ad-VL12.3 (adenovirus carrying the gene)
One may read the Kd as the equilibrium constant for the complex coming apart. For the molecule B1, the Kd in assay [1] is ~0.005 µM; in assay [2] it was ~0.003 µM. For the same molecule, the formation of aggregates in ST14A cells, 1:1 intrabody:htt plasmid ratio in the assay with httex1Q97-GFP, P42858 was 80 % reduction. For the same molecule, the formation of aggregates in ST14A cells, higher intrabody:htt plasmid ratios with httex1Q97-GFP, P42858 was > 90 % reduction.

B2: engineered (affinity matured) disulfide-free SDIb of Examples 1 and 3 (other)
VL: SRPVLTQSPSVSAAPRQRVTISVSGSNSNIGSNTVNWIQQLPGRAPELLMYDDDLLAPGVSDRFSGSRSGTSASLTISGLQSEDEADYYAATWDDSLNDWVFGGGTKVTVLS
notes: expressed in yeast cytoplasm for the aggregation assay (construct not described); also called engineered SDIb
Consider B2, for which, in assay [3], the Kd was ~0.01 µM.

B3: VL (anti-huntingtin single-domain antibody, variable light chain only), yeast-surface displayed (other)
VL: QPVLTQSPSVSAAPRQRVTISCSGSNSNIGSNTVNWFQQLPGRAPELLMYYDDLLAPGVSDRFSGSKSGTSASLAISGLQSEDEADYYCATWDDSLNGWVFGGGTKVTVLS
notes: Single human VL domain with its disulfide bond; also called SDAb; SDIb
Consider B3, for which the Kd in assay [4] is ~0.03 µM; in assay [5] it was 0.03 to 0.05 µM.

B4: VL,C22V,C89A (disulfide-free VL), yeast-surface displayed (other)
VL: QPVLTQSPSVSAAPRQRVTISVSGSNSNIGSNTVNWFQQLPGRAPELLMYYDDLLAPGVSDRFSGSKSGTSASLAISGLQSEDEADYYAATWDDSLNGWVFGGGTKVTVLS
notes: also called disulfide-free antibody; disulfide knock-out
Regarding B4, the “fold decrease in affinity against the SDAb with its disulfide bond” value in assay [6] was ~100 fold. In addition, the “fold difference in affinity against VL” value in assay [7] is ~1000 fold. In assay [4], the Kd is > 10 µM.
